This note sets out measurements from article PMC12219854 (Nature Communications, 2025).

The target in assay [1] is GST-Bahcc1^TTD (murine Bahcc1 amino acids 1904-2044) (mouse, UniProt Q3UHR0 1904-2044). Nature of the assay: pull-down.
In assay [2] the target is GST-53BP1^TTD (amino acids 1235-1709) (UniProt Q12888 1235-1709). Nature of the assay: pull-down.
GST-53BP1^TTD (amino acids 1235-1709), sequence (Q12888 1235-1709): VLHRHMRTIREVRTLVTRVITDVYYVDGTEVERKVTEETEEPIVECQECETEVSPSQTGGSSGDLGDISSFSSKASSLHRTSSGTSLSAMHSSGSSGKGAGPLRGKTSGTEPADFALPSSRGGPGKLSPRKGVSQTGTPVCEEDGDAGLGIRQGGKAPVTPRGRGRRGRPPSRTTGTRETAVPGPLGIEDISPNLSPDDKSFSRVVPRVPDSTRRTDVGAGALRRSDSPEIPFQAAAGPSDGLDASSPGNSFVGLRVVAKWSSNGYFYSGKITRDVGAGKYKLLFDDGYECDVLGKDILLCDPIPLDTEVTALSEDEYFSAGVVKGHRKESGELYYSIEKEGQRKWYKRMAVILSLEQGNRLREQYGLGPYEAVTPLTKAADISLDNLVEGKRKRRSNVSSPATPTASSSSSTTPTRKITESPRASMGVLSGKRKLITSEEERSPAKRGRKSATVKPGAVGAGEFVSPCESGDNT

GST-Bahcc1^TTD (murine Bahcc1 amino acids 1904-2044), sequence (Q3UHR0 1904-2044): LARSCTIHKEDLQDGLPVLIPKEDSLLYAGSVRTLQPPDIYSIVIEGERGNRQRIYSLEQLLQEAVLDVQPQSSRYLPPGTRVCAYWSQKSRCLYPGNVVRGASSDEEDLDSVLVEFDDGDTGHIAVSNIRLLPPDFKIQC

With GKGGAKRHRKVLRDNIQ (peptide, UniProt P62805 12-28, looked up, monomethyl-lysine at K20; biotin (position not given)) [biotinylated H4 peptide, amino acids 11 to 27, H4K20me1], the binding result in assay [1] is “binds”.
With GKGGAKRHRKVLRDNIQ (peptide, UniProt P62805 12-28, looked up, dimethyl-lysine at K20; biotin (position not given)) [biotinylated H4 peptide, amino acids 11 to 27, H4K20me2], in assay [2], the binding result was “binds”.
